Laboratory results published in patent US20090081197A1 (PALATIN TECHNOLOGIES, published 2009).
Where two headings read alike, the source gives them in different places. Starred links: 1 amine or outer side, 2 acyl side, 3 side chain; linkers in the order of their positions; H or OH if unused. Positions of bridges follow the written chain, without caps; N, C: chain ends. Non-standard residues stand in square brackets, D forms with d. No end group written: not given here. Ser(Bzl) = O-benzyl-serine, O=C([C@H](COCc1ccccc1)N[*:1])[*:2]; dPhe(4-Cl) = N[C@H](Cc1ccc(Cl)cc1)C(=O)O; 1Nal = N[C@@H](Cc1cccc2ccccc12)C(=O)O; 2Nal = N[C@@H](Cc1ccc2ccccc2c1)C(=O)O; d2Nal = N[C@H](Cc1ccc2ccccc2c1)C(=O)O; Nle = CCCC[C@H](N)C(=O)O; Ahp = NCCCCCCC(=O)O

Assays:
[1] = biological target: T1, human melanocortin 4 receptor (human, UniProt P32245 1-332); assay: cell-based or functional assay
[2] = biological target: T2, human melanocortin 5 receptor (human, UniProt P33032 1-325); assay: radioligand competition, [I125]-NDP-α-MSH, hMC5-R membranes
T2 construct: whole, on cells; also called hMC5-R; MC5-R

[3] = biological target: T3, MC1-R of B-16 mouse melanoma cells (mouse, UniProt Q01727 1-315); assay: radioligand competition, [I125]-NDP-α-MSH, B-16 membranes
T3 construct: whole, on cells; also called B16-F10 (MC1-R)

[4] = biological target: T1, human melanocortin 4 receptor; assay: radioligand competition, [I125]-NDP-α-MSH, hMC4-R membranes
[5] = biological target: T4, human melanocortin 3 receptor (human, UniProt P41968 1-323); assay: radioligand competition, [I125]-NDP-α-MSH, hMC3-R membranes
T4 construct: whole, on cells; also called hMC3-R; MC3-R

[6] = biological target: T1, human melanocortin 4 receptor; assay: cell-based or functional assay; remark: listed apart in the source
[7] = biological target: T1, human melanocortin 4 receptor; assay: radioligand competition, [I125]-NDP-α-MSH, hMC4-R membranes; remark: listed apart in the source
[8] = biological target: T4, human melanocortin 3 receptor; assay: radioligand competition, [I125]-NDP-α-MSH, hMC3-R membranes; remark: listed apart in the source
[9] = biological target: T3, MC1-R of B-16 mouse melanoma cells; assay: radioligand competition, [I125]-NDP-α-MSH, B-16 membranes; remark: listed apart in the source
[10] = biological target: T2, human melanocortin 5 receptor; assay: radioligand competition, [I125]-NDP-α-MSH, hMC5-R membranes; remark: listed apart in the source
[11] = biological target: T1, human melanocortin 4 receptor; assay: cell-based or functional assay; remark: listed apart in the source
[12] = biological target: T3, MC1-R of B-16 mouse melanoma cells; assay: radioligand competition, [I125]-NDP-α-MSH, B-16 membranes; remark: listed apart in the source
[13] = biological target: T1, human melanocortin 4 receptor; assay: radioligand competition, [I125]-NDP-α-MSH, hMC4-R membranes; remark: listed apart in the source
human MC1-R = biological target: T5, human MC1-R (human, UniProt Q01726 1-317); assay: radioligand competition, NDP-α-MSH, human MC1-R, normal system
T5 construct: whole, on cells; Used in separate experiments for Ki with NDP-α-MSH; the source of the membranes is not described; also called hMC1-R

[14] = biological target: T2, human melanocortin 5 receptor; assay: radioligand competition, [I125]-NDP-α-MSH, hMC5-R membranes; remark: listed apart in the source
[15] = biological target: T4, human melanocortin 3 receptor; assay: radioligand competition, [I125]-NDP-α-MSH, hMC3-R membranes; remark: listed apart in the source
[16] = biological target: T3, MC1-R of B-16 mouse melanoma cells; assay: radioligand competition, [I125]-NDP-α-MSH, B-16 membranes; remark: listed apart in the source
[17] = biological target: T1, human melanocortin 4 receptor; assay: cell-based or functional assay; remark: listed apart in the source
[18] = biological target: T1, human melanocortin 4 receptor; assay: radioligand competition, [I125]-NDP-α-MSH, hMC4-R membranes; remark: listed apart in the source
[19] = biological target: T4, human melanocortin 3 receptor; assay: radioligand competition, [I125]-NDP-α-MSH, hMC3-R membranes; remark: listed apart in the source
[20] = biological target: T2, human melanocortin 5 receptor; assay: radioligand competition, [I125]-NDP-α-MSH, hMC5-R membranes; remark: listed apart in the source
[21] = biological target: T3, MC1-R of B-16 mouse melanoma cells; assay: radioligand competition, [I125]-NDP-α-MSH, B-16 membranes; remark: listed apart in the source
[22] = biological target: T4, human melanocortin 3 receptor; assay: radioligand competition, [I125]-NDP-α-MSH, hMC3-R membranes; remark: listed apart in the source
[23] = biological target: T1, human melanocortin 4 receptor; assay: cell-based or functional assay; remark: listed apart in the source
[24] = biological target: T2, human melanocortin 5 receptor; assay: radioligand competition, [I125]-NDP-α-MSH, hMC5-R membranes; remark: listed apart in the source
[25] = biological target: T1, human melanocortin 4 receptor; assay: radioligand competition, [I125]-NDP-α-MSH, hMC4-R membranes; remark: listed apart in the source
[26] = biological target: T1, human melanocortin 4 receptor; assay: as above; remark: listed apart in the source
[27] = biological target: T4, human melanocortin 3 receptor; assay: radioligand competition, [I125]-NDP-α-MSH, hMC3-R membranes; remark: listed apart in the source
[28] = biological target: T1, human melanocortin 4 receptor; assay: cell-based or functional assay; remark: listed apart in the source
[29] = biological target: T2, human melanocortin 5 receptor; assay: radioligand competition, [I125]-NDP-α-MSH, hMC5-R membranes; remark: listed apart in the source
[30] = biological target: T3, MC1-R of B-16 mouse melanoma cells; assay: radioligand competition, [I125]-NDP-α-MSH, B-16 membranes; remark: listed apart in the source
[31] = biological target: T4, human melanocortin 3 receptor; assay: radioligand competition, [I125]-NDP-α-MSH, hMC3-R membranes; remark: listed apart in the source
[32] = biological target: T1, human melanocortin 4 receptor; assay: radioligand competition, [I125]-NDP-α-MSH, hMC4-R membranes; remark: listed apart in the source
[33] = biological target: T3, MC1-R of B-16 mouse melanoma cells; assay: radioligand competition, [I125]-NDP-α-MSH, B-16 membranes; remark: listed apart in the source
[34] = biological target: T1, human melanocortin 4 receptor; assay: cell-based or functional assay; remark: listed apart in the source
[35] = biological target: T3, MC1-R of B-16 mouse melanoma cells; assay: radioligand competition, [I125]-NDP-α-MSH, B-16 membranes; remark: listed apart in the source
[36] = biological target: T2, human melanocortin 5 receptor; assay: radioligand competition, [I125]-NDP-α-MSH, hMC5-R membranes; remark: listed apart in the source
[37] = biological target: T1, human melanocortin 4 receptor; assay: radioligand competition, [I125]-NDP-α-MSH, hMC4-R membranes; remark: listed apart in the source
[38] = biological target: T4, human melanocortin 3 receptor; assay: radioligand competition, [I125]-NDP-α-MSH, hMC3-R membranes; remark: listed apart in the source
[39] = biological target: T1, human melanocortin 4 receptor; assay: cell-based or functional assay; remark: listed apart in the source
[40] = biological target: T4, human melanocortin 3 receptor; assay: radioligand competition, [I125]-NDP-α-MSH, hMC3-R membranes; remark: listed apart in the source
[41] = biological target: T3, MC1-R of B-16 mouse melanoma cells; assay: radioligand competition, [I125]-NDP-α-MSH, B-16 membranes; remark: listed apart in the source
[42] = biological target: T2, human melanocortin 5 receptor; assay: radioligand competition, [I125]-NDP-α-MSH, hMC5-R membranes; remark: listed apart in the source
[43] = biological target: T1, human melanocortin 4 receptor; assay: radioligand competition, [I125]-NDP-α-MSH, hMC4-R membranes; remark: listed apart in the source
[44] = biological target: T1, human melanocortin 4 receptor; assay: cell-based or functional assay; remark: listed apart in the source

T5 sequence (Q01726 whole entry): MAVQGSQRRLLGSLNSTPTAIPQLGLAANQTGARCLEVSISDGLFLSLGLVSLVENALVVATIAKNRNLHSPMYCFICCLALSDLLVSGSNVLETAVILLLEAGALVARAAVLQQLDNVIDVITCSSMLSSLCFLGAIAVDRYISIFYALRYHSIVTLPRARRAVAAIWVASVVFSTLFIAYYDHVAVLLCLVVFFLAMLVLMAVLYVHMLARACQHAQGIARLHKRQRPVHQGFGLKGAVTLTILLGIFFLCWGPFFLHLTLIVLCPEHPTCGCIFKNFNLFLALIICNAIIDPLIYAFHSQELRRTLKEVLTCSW
T3 sequence (Q01727 whole entry): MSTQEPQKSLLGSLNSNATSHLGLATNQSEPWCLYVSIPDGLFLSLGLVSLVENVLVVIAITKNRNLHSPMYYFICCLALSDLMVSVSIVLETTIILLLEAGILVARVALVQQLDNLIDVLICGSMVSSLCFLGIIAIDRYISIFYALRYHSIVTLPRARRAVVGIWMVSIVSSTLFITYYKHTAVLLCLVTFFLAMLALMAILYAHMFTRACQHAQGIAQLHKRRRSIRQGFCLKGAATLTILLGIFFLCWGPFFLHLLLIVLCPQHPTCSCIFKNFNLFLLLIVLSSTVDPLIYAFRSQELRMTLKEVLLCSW
T4 sequence (P41968 whole entry): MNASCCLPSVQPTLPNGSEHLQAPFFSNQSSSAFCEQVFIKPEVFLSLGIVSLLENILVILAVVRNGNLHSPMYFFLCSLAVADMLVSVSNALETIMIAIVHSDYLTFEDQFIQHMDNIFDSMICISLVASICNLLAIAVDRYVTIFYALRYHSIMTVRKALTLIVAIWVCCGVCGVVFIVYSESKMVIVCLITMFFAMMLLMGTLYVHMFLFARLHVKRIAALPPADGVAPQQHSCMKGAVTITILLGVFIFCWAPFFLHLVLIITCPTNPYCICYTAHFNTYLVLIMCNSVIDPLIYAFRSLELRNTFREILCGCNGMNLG
T1 sequence (P32245 whole entry): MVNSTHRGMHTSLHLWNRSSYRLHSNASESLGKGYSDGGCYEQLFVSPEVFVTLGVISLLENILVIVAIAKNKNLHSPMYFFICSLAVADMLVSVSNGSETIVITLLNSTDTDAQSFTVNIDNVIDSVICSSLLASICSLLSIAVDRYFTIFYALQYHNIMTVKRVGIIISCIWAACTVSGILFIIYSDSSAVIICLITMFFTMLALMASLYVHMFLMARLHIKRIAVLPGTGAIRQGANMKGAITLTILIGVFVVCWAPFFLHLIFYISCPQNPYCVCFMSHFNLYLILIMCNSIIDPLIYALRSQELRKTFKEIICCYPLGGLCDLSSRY
T2 sequence (P33032 whole entry): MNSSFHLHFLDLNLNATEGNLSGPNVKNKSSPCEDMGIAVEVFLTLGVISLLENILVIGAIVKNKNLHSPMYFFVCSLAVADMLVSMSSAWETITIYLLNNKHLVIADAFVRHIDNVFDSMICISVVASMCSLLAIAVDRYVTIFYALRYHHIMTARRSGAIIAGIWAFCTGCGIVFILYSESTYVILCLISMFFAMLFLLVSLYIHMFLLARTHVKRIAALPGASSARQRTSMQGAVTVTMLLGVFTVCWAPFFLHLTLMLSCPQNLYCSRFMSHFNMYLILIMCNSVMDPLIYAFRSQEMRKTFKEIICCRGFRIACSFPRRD

B1: NH2-(CH2)6-C(=O)-Ser(Bzl)-(D)Phe(4-Cl)-Arg-Trp-NH2 (peptide)
peptide: [Ahp][Ser(Bzl)][dPhe(4-Cl)]RW-NH2
modifications: N-terminus assumed
SMILES: N=C(N)NCCC[C@H](NC(=O)[C@@H](Cc1ccc(Cl)cc1)NC(=O)[C@H](COCc1ccccc1)NC(=O)CCCCCCN)C(=O)N[C@@H](Cc1c[nH]c2ccccc12)C(N)=O
notes: also called Compound No. 1
[1]
  EC50 (nM) at MC4-R in a normal system (cAMP): 296 nM
  intrinsic activity, normal system (cAMP): 0.32
[2]
  Ki: 208 nM
[3]
  Ki: 351 nM
[4]
  Ki: 3 nM
[5]
  Ki: 27 nM
[6]
  EC50 (nM) (cAMP), High Receptor Density System: 21 nM

B2: Ac-cyclo(Asp-Trp-D-Nal 2-Arg-Nal 2-Lys)-NH-CH3 (peptide)
peptide: Ac-DW[d2Nal]R[2Nal]K-NHMe
modifications: lactam 1-6
notes: also called Compound No. 35
[7]
  Ki: 0.06 nM
[8]
  Ki: 3 nM
[9]
  Ki: 643 nM
[10]
  Ki: 6 nM

B3: Ac-Nle-cyclo(-Asp-Trp-D-Phe-Arg-Nal 1-Lys)-N(CH3)2 (peptide)
peptide: Ac-[Nle]DW[dF]R[1Nal]K-NMe2
modifications: lactam 2-7
notes: also called Compound No. 36
[1]
  EC50 (nM), normal system (cAMP): 272 nM
  intrinsic activity, normal system (cAMP): 0.8
[11]
  EC50 (nM) (cAMP), High Receptor Density System: 4 nM
[12]
  Ki: 12 nM
[13]
  Ki: 38 nM
Human MC1-R
  Ki: 39 nM
[14]
  Ki: 31 nM
[15]
  Ki: 231 nM

B4: Ac-Nle-cyclo(-Asp-His-D-Phe-Arg-Nal 1-Lys)-N(CH3)2 (peptide)
peptide: XDHFRXK
modifications: N-terminal acetyl; Nle at 1 (X); D-Phe at 4; Nal 1 at 6 (X); cyclo(Asp 2 to Lys 7); C-terminal dimethylamide -N(CH3)2
notes: also called Compound No. 37
[1]
  EC50 (nM), normal system (cAMP): 44 nM
  intrinsic activity, normal system (cAMP): 0.7
[16]
  Ki: 0.39 nM
[17]
  EC50 (nM) (cAMP), High Receptor Density System: 0.6 nM
  EC50 (nM) (cAMP), Low Receptor Density System: 2.1 nM
Human MC1-R
  Ki: 0.08 nM
[18]
  Ki: 5 nM
[19]
  Ki: 111 nM
[20]
  Ki: 50 nM

B5: Ac-Nle-cyclo(-Asp-His-D-Phe-Arg-Nal 1-Lys)-NH-CH2-CH3 (peptide)
peptide: XDHFRXK
modifications: N-terminal acetyl; Nle at 1 (X); D-Phe at 4; Nal 1 at 6 (X); cyclo(Asp 2 to Lys 7); C-terminal ethylamide -NH-CH2-CH3
notes: also called Compound No. 39
[1]
  EC50 (nM), normal system (cAMP): 0.2 nM
  intrinsic activity, normal system (cAMP): 0.6
[21]
  Ki: 0.07 nM
[22]
  Ki: 28 nM
[23]
  EC50 (nM) (cAMP), High Receptor Density System: 1.1 nM
  EC50 (nM) (cAMP), Low Receptor Density System: 10 nM
Human MC1-R
  Ki: 0.04 nM
[24]
  Ki: 63 nM
[25]
  Ki: 2 nM

B6: Ac-Nle-cyclo(-Asp-Trp-D-Phe-Arg-Nal 1-Lys)-NH-CH2-CH3 (peptide)
peptide: Ac-[Nle]DW[dF]R[1Nal]K-NHEt
modifications: lactam 2-7
SMILES: CCCC[C@H](NC(C)=O)C(=O)N[C@H]1CC(=O)NCCCC[C@@H](C(=O)NCC)NC(=O)[C@H](Cc2cccc3ccccc23)NC(=O)[C@H](CCCNC(=N)N)NC(=O)[C@@H](Cc2ccccc2)NC(=O)[C@H](Cc2c[nH]c3ccccc23)NC1=O
notes: also called Compound No. 38
[1]
  EC50 (nM), normal system (cAMP): 120 nM
  intrinsic activity, normal system (cAMP): 0.6
[26]
  Ki: 9 nM
[27]
  Ki: 77 nM
Human MC1-R
  Ki: 30 nM
[28]
  EC50 (nM) (cAMP), High Receptor Density System: 10 nM
[29]
  Ki: 47 nM
[30]
  Ki: 4.2 nM

B7: Ac-cyclo(-Asp-His-D-Phe-Arg-Trp-Lys)-NH-CH2-CH3 (peptide)
peptide: Ac-DH[dF]RWK-NHEt
modifications: lactam 1-6
notes: also called Compound No. 40
[31]
  Ki: 84 nM
[1]
  EC50 (nM), normal system (cAMP): 3 nM
  intrinsic activity, normal system (cAMP): 0.6
[32]
  Ki: 6 nM
[33]
  Ki: 5 nM
Human MC1-R
  Ki: 0.52 nM
[34]
  EC50 (nM) (cAMP), Low Receptor Density System: 3.1 nM

B8: NH2-(CH2)6-C(=O)-Ser(Bzl)-D-Phe(4-Cl)-Arg-Trp-Asp-Phe-NH2 (peptide)
peptide: [Ahp][Ser(Bzl)][dPhe(4-Cl)]RWDF-NH2
modifications: N-terminus assumed
SMILES: N=C(N)NCCC[C@H](NC(=O)[C@@H](Cc1ccc(Cl)cc1)NC(=O)[C@H](COCc1ccccc1)NC(=O)CCCCCCN)C(=O)N[C@@H](Cc1c[nH]c2ccccc12)C(=O)N[C@@H](CC(=O)O)C(=O)N[C@@H](Cc1ccccc1)C(N)=O
notes: also called Compound No. 14
[1]
  EC50, normal system (cAMP): 238 nM
  intrinsic activity, normal system (cAMP): 0.5
[35]
  Ki: 242 nM
[36]
  Ki: 405 nM
[37]
  Ki: 5 nM
[38]
  Ki: 76 nM
[39]
  EC50 (nM) (cAMP), High Receptor Density System: 141 nM

B9: NH2-(CH2)6-C(=O)-Ser(Bzl)-D-Phe(4-Cl)-Arg-Trp-Asp-NH2 (peptide)
peptide: [Ahp][Ser(Bzl)][dPhe(4-Cl)]RWD-NH2
modifications: N-terminus assumed
SMILES: N=C(N)NCCC[C@H](NC(=O)[C@@H](Cc1ccc(Cl)cc1)NC(=O)[C@H](COCc1ccccc1)NC(=O)CCCCCCN)C(=O)N[C@@H](Cc1c[nH]c2ccccc12)C(=O)N[C@@H](CC(=O)O)C(N)=O
notes: also called Compound No. 13
[1]
  EC50 (nM), normal system (cAMP): 568 nM
  intrinsic activity, normal system (cAMP): 0.5
[40]
  Ki: 180 nM
[41]
  Ki: 760 nM
[42]
  Ki: 596 nM
[43]
  Ki: 9 nM
[44]
  EC50 (nM) (cAMP), High Receptor Density System: 34 nM
